Data reported in the DeepSol protein solubility set.

Experiment: soluble on expression in E. coli; label from the status in PepcDB or PDB records

MIKASLVFFAFLALASGRRHHYDYYDCEPERGPRGREGREGPRGAQGAPGPNGTGFFWPGTCEQSDCPDGWISVNRKINNDVEKKWCINMFWNQATNDLYKTSEKVCNSYGGVMTGFKDKGEFISVFALLKNRFPNIKPVSQVMIGARRLETCASISNFGNCTITKGTKWTDLVMSIDSFFNELQQSARFSPLKKCIVANPTNLKLYVANCNVLESDYPQDLFMCGRFAPCKK
soluble on expression in E. coli: not soluble

MGSDKIHHHHHHLFSEAQMQKMGAESFASMNQEQKVSKDKALTTYVNCVAKRITDVLPGEAKPWELVLFESDQVNAFAVPGGFIGVYTGLLNVANTQDQLATVLGHEVAHVLAHHGNEQVSRAQMTGLGIQLADVALGAGGVSNKDLYMQALGLGAKVGYILPFGRTQESEADVMGLELMAKAGFDPSQSITLWQNMAKAGGAQGPELLSTHPSNERRIQDLQGLQGRVAPLYLAARETQLAKCIQPGKK
soluble on expression in E. coli: not soluble

MGSDKIHHHHHHMPLDVDHLRIPALPQLFMELQNALGQPHVSYERIAAIVSKDPRLTASLLKLVNSPHFGFSTPIETVSRAVAASGIRRVSALALGTFVLGLYRERPPLVVDIQGFWLHSVGCGIAARLLAQRLGRSDPERFFVAGLLHDMGWLALCSAAPDRAERIVRRIQSTGCSCEEAERLELGTTHAELGATVLKTWNLPAFLIDVVRSHHAPLATVGDNPPVDGALEVHIADAVVKGMGIGGALDARIAPLDLDAVDTLGLSGHDIAAMTNGLVEQSQALSRLLQGD
soluble on expression in E. coli: not soluble

MSPTLSILIPVYKRDCRRLLEELYKQAEELSVGYEIILGDDCSGEPYTSQYIAYEQEGLCRLVSAEENMGAGRLRNRLAEEAQGEQLLILDSDTLPASPDFIERYLRHASGTTVVCGGFVYPPKSTNPLRQRYGAEVESRSAEERARKPHSGFISMAFMIPRKQMLATGFPPNMGMGYEDILFGERLRQAGIPILHIDNPVEHYHCDTAEGFLATTRSYLDNLYCHREELAELVSLLRAYNLLKRLHLMRMVAALWPLIRSSLEKQLTGAKPSLLLFSLYKLLYVASLSLVCAEKS
soluble on expression in E. coli: not soluble

MGHHHHHHSHVSRHYCPTCCYPMNACLCSHLQQIKPQTQLLVLQHPSEVEHKKNSVRVLSLVIPDTQVYVGESEADFAALRAQLSRCQRPIYLVYPSEQSASVESQSICVDCVLLLIDGTWRKAFKILQLNPWLAQFPAVHLAQGYASRYKIRKSSRSDSLSTLEASAYMLKALDDGLDVSPLLAAFDAMVAMRLQAMPAEVRLRYD
soluble on expression in E. coli: not soluble

MSLRPTMTDIAKLTGVSQSTVSLVLNNATGAKFSETTRNKVLKAAHDLGYRLSLREPVSASADERNLIVYLADEISTSPHPVVNIDGARDAAYASGKMLAVYSTHGNADIEKQVLDTTLSNPHVFGVIYATVYTRKVTPPAALSQVPTVLLNCYTGEGGFSSVVPAEVAGGHLATDYLLQSGHRRIGYINGEPWQDASKDRLKGYRTALATADLPFAQEMVRDGDWSSGLGFELTLSLMRESNPPTAIFCANDLTAIGAIEALKQLGLRVPEDVSVLGYDDQEIARHTHPPLSTVVLPNYELGRWAVETLLQEEHNRAAGAPVRHRMVKLDGPLVERGSVRVITEAKEGHHHHHH
soluble on expression in E. coli: soluble

MAHLLQLHHVSKSYREKKAIDDLTITIPNGKIIGLLGPNGSGKTTLIKLINGLLQPNKGEIVIDGYRPCVETKKIISYLPDTTYLNENMRIKDMLEFFSDFYSDFDKSKATSLLRDLELDPEDRFKTLSKGNKEKVQLILVMSRKARLYVLDEPIGGVDPAARDYILKTIINSYCENASVIISTHLISDIEPILDEVIFLKQGRLFLSGNADDLRQEYQQSIDSLFRETYKV
soluble on expression in E. coli: not soluble

MGSDKIHHHHHHMSENEQLSATYELLHADAASPVMISLPHSGTWIPADMRKHLLPTAVLANTDWFLPALYDFLPQTGFTTLINRVNRYVADPNRAVTLDLDHDYRSATIYQRNTFNHPLYARPLPPETLQSRLRTYYWPYRHALTMILKQKQAKFGHAYLIDLHSFAQYPHYPGIKPKTIVLGNDHDRTTSKIFRQTLSAAFVAHDFTVENNFPFRGGDITRYYGHQPNITAIQIELRYDQYIDQRSFREEVLTRHQTDLFCKAQDRLRFLRDFLKQLR
soluble on expression in E. coli: not soluble

MKVEEQYLQLFRENREAIDSHSPRVLNEQREKASMAFASKGLPRYGTENYQRTDLSELFGYDYGVNLNRVNFPIRQKEAFHCTLPDLDTDLCYIVNDAYDNEWSRVSELPEGAFVGSLSDFALSHPEIAARYYAQAAAPDHDGIIAFSTMFAQDGFIIYLPDGAVLKNPIQLVQLLRADMEIL
soluble on expression in E. coli: not soluble

MKIKACIFDMDGTLVNSIMDIAFSMNSALSNLGYSKIELSKFNALVGRGFNKFVIDTLKLLSLEHDNPNLQEKLYKEFVKEYNKNLSFQTKPYENIKPLLETMNKLNIPIGILSNKNHEELINLVKNIFGNILFFEIRGYSKNFPPKPDPENALDMILELNAQKEEIAYIGDSDVDMLTALNAGFMPIGVSWGFRSVQELKESGAKHIIHNPLELLDLIK
soluble on expression in E. coli: not soluble

SEAAETEAEAAALEVLAEVAGILEPVGLQEEAELPAKILVEFVVDSQKKDKLLCSQLQVADFLQNILAQEDTAKGLDPLASEDTSRQKAIAAKEQWKELKATYREHVEAIKIGLTKALTQMEEAQRKRTQLREAFEQLQAKKQMAMEKRRAVQNQWQLQQEKHLQHLAEVSAEVRERKTGTQQELDGVFQKLGNLKQQAEQERDKLQRYQTFLQLLYTLQGKLLFPEAEAEAENLPDDKPQQPTRPQEQSTGDTMGRDPGVSFKAVGLQPAGDVNLP
soluble on expression in E. coli: soluble

MGSDKIHHHHHHALGVVDEVHAGKEIGLQIYSLSQELYKGDVAANLRKVKDMGYSKLELAGYGKGAIGGVPMMDFKKMAEDAGLKIISSHVNPVDTSISDPFKAMIFKYSKEVTPKIMEYWKATAADHAKLGCKYLIQPMMPTITTHDEAKLVCDIFNQASDVIKAEGIATGFGYHNHNMEFNRVATKEQQEKVKGNPFAAFMKVGDQIYDLMLKDTDPSKVYFEMDVYWTVMGQNDPVEYMQKHPDRIKVLHIKDRAVFGQSGMMNFEMIFKQMYANGIKDYFVELEQMPDGRTQFAGVKDCADYLIKAPFVK
soluble on expression in E. coli: not soluble

MGPVRFAPSILTADLARLGEAIREAEAAGVDWIHLDVMDGVFVPNLTFGPLLVEAVRRVTSLPLDVHLMIVKPERYLEDFAQAGADHITVHFEATYHPHRAVQKVKELGKKAGLAVNPGTPLEAFEPLLPDLDLALLMSVNPGFGGQRYLPTATERLRRLKAMRDRLNPACLIVVDGGINRDTVAEARRAGADVAVAGSALFNDKPVAENLKALRLALLG
soluble on expression in E. coli: soluble

MPTTRHYDIVIIGGGIQGAAVAQAAAALGYNVLVLEKTALAAGTSSRSSKLIHGGLRYLESGQFGLVWESLKERAALLRLAPSLVRLQPFHIPIYDQTSRDTLTIRAGLSLYALLAGLSKGAGFHSIPRRRWGELDGLSTRGLRHVFQYWDAQTDDQALTRAIMHSASSLGVELHCPAEFIHARISGEICEIEFLENNQAYQCTASSLVNAAGPWVSQVAERISPAPPAYPVELVQGTHLILEGSLDKGCYYLESPQDRRAIFALPWKQHILLGTTETVFEGAPDKALPLVSEENYLLGCFRYYFPDHGATVRERFTGLRVLPVSRNNPFGRSRETHLQCDSPESPRIVGIYGGKLTVCRATARKVLHTLRPSLPVRIPKADISQLTLKLPLEHHHHHH
soluble on expression in E. coli: soluble

MKTFESLFAELSEKAQTRPEGSLTVDELDKGTHFIGKKIIEEAGETWMAAEYEGADRTAEEMSQLLYHVQVMMIKHGLTLEDVYKHL
soluble on expression in E. coli: soluble

SLQAINPNWNVPKNIHAFTTTREGGVSLAPYLSFNLGDHVGDNKSAVKTNRTLLVEKFGLPQTPIFLTQTHSTRVIQLPYSGQNLEADAVYTNVPNQVCVVMTADCLPVLFTTTSGNEVAATHAGWRGLCDGVLEETVKYFQAKPEDIIAWFGPAIGPKAFQVGIDVVEKFVVVDEKAKLAFQPDAIEEGKYLSNLYQIATQRLNNLGITQIYGGNHCTFNEKEKFFSYRRDNQTGRMASVIWFE
soluble on expression in E. coli: soluble

MSNSHHTSMRGNDMSDNIRVGLIGYGYASKTFHAPLIAGTPGLELAVISSSDETKVKADWPTVTVVSEPKHLFNDPNIDLIVIPTPNDTHFPLAKAALEAGKHVVVDKPFTVTLSQARELDALAKSLGRVLSVFHNRRWDSDFLTLKGLLAEGVLGEVAYFESHFDRFRPQVRDRWREQGGPGSGIWYDLAPHLLDQAITLFGLPVSMTVDLAQLRPGAQSTDYFHAILSYPQRRVILHGTMLAAAESARYIVHGSRGSYVKYGLDPQEERLKNGERLPQEDWGYDMRDGVLTRVEGEERVEETLLTVPGNYPAYYAAIRDALNGDGENPVPASQAIQVMELIELGIESAKHRATLCLA
soluble on expression in E. coli: soluble

MGSDKIHHHHHHMLSYYGRLSSEVYDIDKPIDHSFRDVEFYIDRLNLCRGHILEPATGTGRVLVPLLEKGFKVDGFDSSKDMLNICRDNCRKKGLNPKLFEAKMESFIQDTRYDAIIVPAGTFLLLHQRADSIRALQNFHKHLCTGGRLIIDILMQTDFSTGTVSTRTWVCSNGDLITLESKVVEVDYINQYTVSHNRYEKWREGVLIQTELERFPLRWYGLEEFKLILESTGFKDIVISSDYKFGQYPSNVKDVITFEAVAIN
soluble on expression in E. coli: not soluble

MAATNHAQAIKKDTKDFITTALLQMLAKEKLQALTVSQICKRAGVSRMAFYRNFNGLEQILYEYYQPKIGAMFDTIRENPQFSAKFDSQLKFFNTFGDDIILSIDRGFEPIIQQIFKEEIEKFYFKDNDEHWTTFMSAGVYAIWRKWLLDGRQKPLKEIMDFFKQFDMIKGNV
soluble on expression in E. coli: not soluble

MSQQPGVLPENMKRYMGRDAQRMNILAGRIIAETVRSTLGPKGMDKMLVDDLGDVVVTNDGVTILREMSVEHPAAKMLIEVAKTQEKEVGDGTTTAVVVAGELLRKAEELLDQNVHPTIVVKGYQAAAQKAQELLKTIACEVGAQDKEILTKIAMTSITGKGAEKAKEKLAEIIVEAVSAVVDDEGKVDKDLIKIEKKSGASIDDTELIKGVLVDKERVSAQMPKKVTDAKIALLNCAIEETASEMLKDMVAEIKASGANVLFCQKGIDDLAQHYLAKEGIVAARRVKKSDMEKLAKATGANVITNIKDLSAQDLGDAGLVEERKISGDSMIFVEECKHPKAVTMLIRGTTEHVIEEVARAVDDAVGVVGCTIEDGRIVSGGGSTEVELSMKLREYAEGISGREQLAVRAFADALEVIPRTLAENAGLDAIEILVKVRAAHASNGNKCAGLNVFTGAVEDMCENGVVEPLRVKTQAIQSAAESTEMLLRIDDVIAAEKLRGAPDMGDMGGMPGMGGMPGMM
soluble on expression in E. coli: soluble

MFRPASIAVTAALCACALPALASETLNSRTDVLAALEAGYDVSVSTDLSRCTPEEGTPVSRTRGGRHIDAYRITEDGNVAFSGAHFTVANDGKPIQQFMRYQLRPDGSVRFTTYMYDLPGLQQRGPVLAYQCAFNEGARFHADLEHHHHHH
soluble on expression in E. coli: soluble

MEMSHRSSYFQSIIDEAGSLLRELMNIPDEYEVLFLQGGASLQFSMIPLNLMNTYKKAGYVLTGSWSKKALQEAEKVGEVQVIASSENEKFTTIPKLDGLLGDEKLDYVHITTNNTIEGTKYVDIPHVDKVPLVADMSPNILSERYDVSKFGLIYAGAQKNLGPAGLTIAIIKRDLIGGADRYCPTMLNYETYSKNNSLYNTLPSFSIYVTKLVLEWLKEQGGVSAIEEQNKMKSSLLYNFLDESKLLTSPVDPAYRSLMNIPFTTPSEELNNEFLQKAKERGLVTLKGHRSVGGMRASIYNAMPVQGVQQLVNYMKEFELENR
soluble on expression in E. coli: not soluble
